For this assay, the target named is W619_1-LOV, short LOV protein from Pseudomonas putida (Pseudomonas putida). As to the kind of experiment: crystal structure; apo-state; sitting drops grown in the dark, 100 mM MES pH 6.0-6.3, 1 M ammonium sulfate, 14 °C; space group I4(1), two molecules per asymmetric unit.

What is called stoichiometry N is a count of units in the complex or per binding partner.

The substance “W619_1-LOV, short LOV protein from Pseudomonas putida (natural protein)” returned a stoichiometry N of 2.

For the origin of these results see publication PMC5314338, “Structure of a LOV protein in apo-state and implications for construction of LOV-based optical tools” (Scientific Reports, 2017).
